Two molecules from PMC9114768 (Frontiers in Immunology, 2022) can be followed below.

Holding throughout (settings): both partners purified
In assay [1] the target is His-tagged SARS-CoV-2 S1-RBD recombinant protein, wild type (SARS-CoV-2 (YP_009724390), UniProt P0DTC2). Kind of assay: SPR; Biacore T200; […]; mAb 256 nM to 8 nM; 30 μL/min, 120 s association, 360 s dissociation; 25°C; 1:1 binding model.
The target of another assay is T1, S1-RBD peptide 13 (SARS-CoV-2 (YP_009724390)).
T1 construct: source: synthetic peptide (Leadgene Biomedical)
T1 chain: PFERDISTEIYQAGS
The assay can be described thus: ELISA. Background: In an ELISA, binding on a coated surface is turned into a signal by an enzyme label.

Assay [2] addresses T2, C-terminal Fc-tagged human ACE2 recombinant protein (Homo sapiens, UniProt Q9BYF1).
T2 construct: also called ACE2-hFc; recombinant ACE2-hFc; source: CHO cells, purified (Leadgene Biomedical Cat. No. 63333); not shown: Fc (human, hFc), C-terminal, kept
Kind of assay: SPR; Biacore T200; […]; mAb 1024 nM to 8 nM; 30 μL/min, 120 s association, 360 s dissociation; 25°C; 1:1 binding model. Background: In SPR one partner is held on a chip, and binding of the other changes the refractive index at the surface.

T2 sequence (Q9BYF1 18-740): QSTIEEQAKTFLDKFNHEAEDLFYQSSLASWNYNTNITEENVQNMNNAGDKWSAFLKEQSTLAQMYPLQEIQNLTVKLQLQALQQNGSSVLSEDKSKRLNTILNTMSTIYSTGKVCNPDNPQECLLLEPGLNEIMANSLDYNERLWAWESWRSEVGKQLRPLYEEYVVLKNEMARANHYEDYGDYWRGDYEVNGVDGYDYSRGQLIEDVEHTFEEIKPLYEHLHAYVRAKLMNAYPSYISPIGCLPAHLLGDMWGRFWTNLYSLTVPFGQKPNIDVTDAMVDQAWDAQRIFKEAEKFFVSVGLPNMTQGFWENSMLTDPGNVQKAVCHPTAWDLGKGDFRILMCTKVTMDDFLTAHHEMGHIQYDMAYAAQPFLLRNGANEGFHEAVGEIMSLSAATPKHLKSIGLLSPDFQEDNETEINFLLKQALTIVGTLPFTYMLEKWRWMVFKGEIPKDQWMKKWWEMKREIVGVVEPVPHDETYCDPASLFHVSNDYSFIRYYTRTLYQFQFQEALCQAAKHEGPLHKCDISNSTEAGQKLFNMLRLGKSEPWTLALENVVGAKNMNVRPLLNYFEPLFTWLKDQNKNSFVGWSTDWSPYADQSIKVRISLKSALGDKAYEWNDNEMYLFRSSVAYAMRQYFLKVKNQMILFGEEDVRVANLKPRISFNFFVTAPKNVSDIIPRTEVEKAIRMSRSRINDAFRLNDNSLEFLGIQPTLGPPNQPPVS

B1: monoclonal antibody 127 (antibody, V domains shown)
VH: QVQLQQPGAELVKPGASVKLSCKASGYTFTSYWMHWVKQRPGQGLEWIGEINPSNGRKNYNEKFKSKATLTVDKSSSTAYMQLSSLTSEDSAVYYCVRGDYGSSYYWYFDVWGAGTTVTVSS
VL: not shown
Take B1: the Kd in assay [1] was found to be 2.44 nM; in assay [2] it was 16.1 nM. Also, in the assay with S1-RBD peptide 13, the binding result is given as “binds”.

B2: monoclonal antibody 150 (antibody, V domains shown)
VH: QVQLQQPGAELVKPGASVKLSCKASGYTFTSYWMHWVKQRPGQGLEWIGEINPSNGRKNYNEKFKSKATLTVDKSSSTAYMQLSSLTSEDSAVYYCVRGDYGSSYYWYFDVWGAGTTVTVSS
VL: not shown
notes: also called mAb 150
For B2, the Kd in assay [1] was determined as 3.87 nM; in assay [2], 2770 nM. Further, the binding result with S1-RBD peptide 13 was “binds”.

By Kd is commonly meant the free concentration of one partner at which half of the binding sites on the other are occupied at equilibrium, for simple one-to-one binding.
